# Assays:
# [1] = molecular target: F906-(G2S1)4-IL2(E62A)-(G2S1)6-HLE (IL-2mut); assay: BLI
# [2] = molecular target: F906-(G2S1)4-IL2-(G2S1)6-HLE (IL2wt); assay: BLI
binder,measurement,setting,value
"CD122 (receptor, biotinylated (site not stated)) AVNGTSQFTCFYNSRANISCVWSQDGALQDTSCQVHAWPDRRRWNQTCELLPVSQASWACNLILGAPDSQKLTTVDIVTLRVLCREGVRWRVMAIQDFKPFENLRLMAPISLQVVHVETHRCNISWEISQASHYFERHLEFEARTLSPGHTWEEAPLLTLKQKQEWICLETLTPDTQYEFQVRVKPLQGEFTTWSPWSQPLAFRTKPAALGKD",Kd,[1],~40 nM
same,Kd,[2],~40 nM
